Columns and labels:
[1] = biological target: T1, human iRhom2 (Homo sapiens, UniProt Q6PJF5); test: Peptide binding ELISA, binding specificity (Example 10), iRhom2 peptides; conditions: antibody 3 μg/ml PBS; peptide coated at 10 μg/ml; normalized to IgM isotype control
T1 construct: the single peptide 3 resembling amino acids 431 to 459 of the extracellular juxtamembrane domain of human iRhom2; made in house; host or cells: chemical synthesis (Fmoc solid phase peptide synthesis), no expression host
T1 sequence (Q6PJF5 with tags, fused parts or gaps): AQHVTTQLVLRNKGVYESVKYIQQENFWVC
Method: (§1) Another series of peptide binding ELISA experiments was conducted to address the specificity of the purified antibody 4H8-E3 of the invention, i.e. to question whether this antibody specifically recognizes peptides, in particular peptide 3, resembling the extracellular juxtamembrane region adjacent to the TMD1 of human iRhom2, or whether the antibody 4H8-E3 of the invention also binds to peptides reflecting the homologous region of the closely related family member human iRhom1.
(§2) In brief, on day 1, Nunc black MaxiSorp® 96-well plates (Thermo Fisher Scientific, USA) were coated overnight with 100 μl per well of single biotinylated peptides 1 to 4, Mix A consisting of peptides 1 to 4, single biotinylated peptides 1b to 4b, and Mix D consisting of peptides 1b to 4b at 10 μg/m1 PBS each (thus, the final concentration of each peptide in both mixes was 2.5 μg/m1) at 4° C. On day 2, peptide solutions were removed and MaxiSorp® plates were blocked with 300 μl per well of Pierce protein-free (TBS) blocking buffer (Thermo Fisher Scientific, USA) at room temperature for 1.5 hours. […] Using an infinite M1000 PRO (Tecan Group, Switzerland) microplate reader, the fluorescence of each well was collected at an excitation wavelength of 435 nm and an emission wavelength of 555 nm.

[2] = test system: human iRhom2; test: as above; conditions: antibody 3 μg/ml PBS; peptides coated at 10 μg/ml; normalized to IgM isotype control
Method: as §1, §2

B1: 4H8-E3: Mouse IgM monoclonal antibody against the human iRhom2 juxtamembrane domain adjacent to TMD1; HC VD SEQ ID NO 33, LC VD SEQ ID NO 40 (antibody, V domains shown)
VH: EVQLQQSGPELVKPGASVKISCKASGYTFTDYYMNWVKQSHGKSLEWIGDINPNNGGTSYNQKFKGKATLTVDKSSNTAYMEFRSLTSEDSAVYYCARRGYYGVDYWGQGTTLTVSS
VL: NIVMTQSPKSMSMSVGERVTLNCKASENVGTYVSWYQQKPEQSPKLLIFGASNRYTGVPDRFIGSGFATDFTLTISSVQAEDLADYHCGQSYSYPYTFGGGTKLEIK
modifications: IgM constant regions; antibody sequence
- binding to single peptide 3 (amino acids 431 to 459 of human iRhom2) [1]: Binding
- binding to Mix A consisting of peptides 1, 2, 3 and 4 [2]: Binding

Reference: patent US20220204610A1, “PROTEIN BINDERS FOR IRHOM2” (NEW YORK SOCIETY FOR THE RELIEF OF THE RUPTURED AND …, priority 2019, published 2022)
